B1: N-terminally flag-tagged hERFE (residues 44–354), WT erythroferrone [human] / BMP6 [not stated] (parent)
chain 1: PPPGNELPRGPGESRAGPAARPPEPTAERAHSVDPRDAWMLFVRQSDKGVNGKKRSRGKAKKLKFGLPGPPGPPGPQGPPGPIIPPEALLKEFQLLLKGAVRQRERAEPEPCTCGPAGPVAASLAPVSATAGEDDDDVVGDVLALLAAPLAPGPRAPRVEAAFLCRLRRDALVERRALHELGVYYLPDAEGAFRRGPGLNLTSGQYRAPVAGFYALAATLHVALGEPPRRGPPRPRDHLRLLICIQSRCQRNASLEAIMGLESSSELFTISVNGVLYLQMGQWTSVFLDNASGCSLTVRSGSHFSAVLLGV
chain 2: SASSRRRQQSRNRSTQSQDVARVSSASDYNSSELKTACRKHELYVSFQDLGWQDWIIAPKGYAANYCDGECSFPLNAHMNATNHAIVQTLVHLMNPEYVPKPCCAPTKLNAISVLYFDDNSNVILKKYRNMVVRACGCH

Variants of: B1
Assay: SPR competition (BMP6 + ERFE over Alk3-Fc captured on protein A chip)
Details: curve maximum near the ~300 s dotted line, RU is residual BMP6 binding to Alk3-Fc (lower RU = more competition by ERFE), read off a plot

Variant | response (with BMP6, 10 nM BMP6 + 80 nM W82A ERFE) [RU] | response (with BMP6, 10 nM BMP6 + 160 nM W82A ERFE) [RU] | response (with BMP6, 10 nM BMP6 + 80 nM F85A ERFE) [RU] | response (with BMP6, 10 nM BMP6 + 160 nM F85A ERFE) [RU]
chain 1 W39A | 12 | 10 | – | –
chain 1 F42A | – | – | 12 | 11

— paper PMC10772735, “Characterization of erythroferrone oligomerization and its impact on BMP antagonism” (The Journal of Biological Chemistry, 2023)
